Test: yeast display, Sf9 membrane polyspecificity reagent, FACS + sequencing; frameworks hold sequencing errors
How it was run: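 Nanobodies from a synthetic yeast display library (Saccharomyces cerevisiae BJ5465), induced 36–48 hours with galactose, were stained 1 hour at 4 °C with 10% biotinylated, detergent-solubilized Sf9 membrane reagent, enriched on streptavidin microbeads, then FACS-sorted. Anti-HA (expression) and streptavidin (reagent binding) fluorescence set low and high (top ~1%) gates. Polyreactivity labels come from the gate of origin. Genes were colony-PCR amplified, MiSeq 2 × 250 sequenced and filtered by CDR length.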

Sequence	polyreactivity (PSR sort gate)
QVQLVESGGGLVQAGGSLSLRCAGSGRTFRTYTMGWYRQARGKERELVAAISWSGSSTYYADSVKGRVTISRDHAKNTVYLQLNSLKPEDTAVYYCAARYVSRRFLGYYYWGQGTQVTVSS	high polyreactivity
QVQLVESGGGLVQAGGSLSLSCAASAHTFVTNAMGWYRQAPGKERELVAAISRSGGHTYYADSVKGRFTISRDNAKNTVYLQMNSLKPEDTAVYYCAKTRGPRTLYDYWGQGTQVTVSS	high polyreactivity
QVQLVESGGGLVQAGGSLSLSCAASASTFRYYTMGWYRQAPGKERELVAAISWTGGGTYYADSVKGRFTISRDNAKNTVYLQMNSLKPEDTAVYYCAASYYYELFRFDYWGQGTQVTVSS	high polyreactivity
QVQLVESGGGLVQAGGSLSLSCAASGFIFDYYTMGWYRQAPGKEREFVAAINRRGDITYYADSVKGRFTISRDNAKNTVYLQMNSLKPEDTAVYSCAATLTWSSRYEYGYWGQGTQVTVSS	low polyreactivity
QVQLVESGGGLVQAGGSLSLSCAASGFTITSYAMGWYRQAPGKERELVAAINSGGSTNYADSVKGRFTISRDNAKNTVYLQMNSLIPEDNAVYYCAAKRRSYRITYVGVGYKYGYWGLGTQVTVSS	high polyreactivity
QVQLVESGGGLVQAGGSLSLSCAASGGIFAYNAMGWYRQAHGKEREWVATISSGVSTNYADSVKGRFTISRDNAKNTVYLQMNSLKPEDTAVYYCAAAIFITGYGSYGYWGQGTQVTVAS	low polyreactivity
QVQLVESGGGLVQAGGSLSLSCAASGIIIYEYAMGWYRQAPGKEMELVAAISNGGSTYYADSVKGRFTISRDNAKNTVYLQMNSLKPEDTAVYYCAARGYFDALFDYWGQGTQVTVSS	low polyreactivity
QVQLVESGGGLVQAGGSLSLSCAASGITFDYYAMGWYRQAPGKERELVAAISGRGTSTYYADSVKGRFTLSRDNAKNTVYLQLNSLKPEDTAVYYCAADPAAQREQSFLCRRGPGYDYWGQGTQVTVSS	low polyreactivity
QVQLVESGGGLVQAGGSLSLSCAASGITFYGYAMGWYRQAHGKERELVATIRRSTGSTYYADSVKGRFTISRDNAMNTVYLQMNSLKPEDTAVYYCATRVWFPITSYDYWGQGTKVTVSS	low polyreactivity
QVQLVESGGGLVQAGGSLSLSCAASGLTIYLYAKGWYRQPPGNERELVAAISRSGGSTYYADSVKGRFTISRDNAKNTVYLQMNSLKPEDTAVYYCAAVSYYPEIRKYYYWGQGTQVTVSS	high polyreactivity
QVQLVESGGGLVQAGGSLSLSCAASGNIFTIYAMGWYRKAPGKERELVARITWGGGNTYYADSVKGRFTISRDNAKNTVYLQMNSLKPEDSAVYYCNAVGPYDYRYGKYDYWGLGTQVTVSS	low polyreactivity
QVQLVESGGGLVQAGGSLSLSCAASGNIFWGNAMGWYRQAPGKERELVAAITSIDSSTYYADSVKGRFTISRDNAKNTVYLQMNSLKPEDTAVYYCAADGDWYGYIWQSDDGYDSWGQGTQVTVSS	low polyreactivity
QVQLVESGGGLVQAGGSLSLSCAASGNNLYGNAMGWYRPAPGKERELVAGITSGGSTNYADSVKGRFTISRDNAKNTVYLQMNSLKREDTAVYYCNATSSGSIFGYDYWGQGTQVTVSS	low polyreactivity
QVQLVESGGGLVQAGGSLSLSCAASGRIFRYNAMGWYRQAPGKERELVATISRGGGSTYYADSVKGRFTISRDNAKNTVYLQMNSLKPEYTAVYYCAAVTYSRISGGYDYWGQGTQVTVSS	high polyreactivity
QVQLVESGGGLVQAGGSLSLSCAASGRTFKYYTMGWYRQAPGKERELVAAISASGGSTYYADSVKGRFTISRDNAKNTVYLQMNSLKPEDTAVYYCAKGANRAIHKQPTRSRLDSWGQGTQVTVSS	high polyreactivity
QVQLVESGGGLVQAGGSLSLSCAASGRTFNSYAMGWYRQAPGKERELVAAISWSGGSTYYADSVKGRFTISRDNAKNTVYLQMNSLKPEDTAVFYCATERYQSSRYRSYWYPFDYWGQGTQVTVSS	low polyreactivity
QVQLVESGGGLVQAGGSLSLSCAASGRTFSPYAMGWYRQAPGKERELVAAITNGGSTHYADSVKGRFTISRDNAKNTVYLQMNTLKPEYTAVYYCAKSRVLYGYAEYYEMDYWGQGTQVTVSS	low polyreactivity
QVQLVESGGGLVQAGGSLSLSCAASGRTFSYYTMGWYRQAPGKERELVARISNRGTNTYYADSVKGRFTISRDNAKNTVYLQMNSLTPEDTAVYYCAKYYYTSIVGYDSWGQGTQVTVSS	low polyreactivity
QVQLVESGGGLVQAGGSLSLSCAASGSIFGRNTMGWYRQAPGKERELVAAITLRGGSTYYADSVKGRFTISRDNAKKTVYLQMNSLKPEDTSDYYCATDGWKQSAYDYWGQGTQVTVSS	low polyreactivity
QVQLVESGGGLVQAGGSLSLSCAASGSIFGVNAMGWYRQAPGKERELVAAITLRSGSTYYADSVKGRFTISRDNAKNTVYIQMNSLKPEDTAVYYSATYSWGVDRPNYNYWGQGTQVTVSS	low polyreactivity

Sequence	polyreactivity (PSR sort gate)
QVQLVESGGGLVQAGGSLSLSCAASGSIFRTYALGWYRQAPGKERELVASITKSGARTYYADSVKGRFTISRDNAKNTVYLQMNSLKPEDTAVYYCAAGYYSVTSRRYRMYYWGQGTQVTVSS	high polyreactivity
QVQLVESGGGLVQAGGSLSLSCAASGSIFRWYAMGWYRQAPGKERELVALISWRGGSTYADSVKGRFTISRDNAKNTVYLQMNSLKPEDTADYYCNARPGSSYWYDAQWGEYGYWGQGTQVTVSS	high polyreactivity
QVQLVESGGGLVQAGGSLSLSCAASGSIFSYYAMGWYRQAPGKARELVAAITANGGSTSYADSVKGRFTISRDTANNTVYLQMNRLKPEDTAVYYCAKESDYPDFVSTKGDYDYWGQGTQVTVSS	low polyreactivity
QVQLVESGGGLVQAGGSLSLSCAASGSILAVNAMGWYRQAPGKERELVAAISSRGGSTSYADSVKGRFTISRDNAKNTVYLQMNSLKPEDTAVYYCAVRAVRRLRTSVPVRFYYWGQGTQVTVSS	high polyreactivity
QVQLVESGGGLVQAGGSLSLSCAASGSILYINDMGWYRQAPGKERELVAAISWSGDSTIYADSVKGRFTISRDNAKNTVYLQMNSLKPEDTAVYYCNAVWYGGDMDYWGQGTQVTVSS	low polyreactivity
QVQLVESGGGLVQAGGSLSLSCAASGSIYWYAMGWYRQAPGKERELVSAISRRGGSTYYADSLKGRFTISRDNAKNTVYLQMNSLKPEDTAVYYCAVGIYGEYDYWGQGTQVTVSS	high polyreactivity
QVQLVESGGGLVQAGGSLSLSCAASGSNFYYNVMGWYRQAPGKERELVAAISQSGVRTYYADSVKGRFTISRDNAKNTVYLQMNSLKPEDTAVYYCAAKARRLYASSYDYWGQGTQVTVSS	high polyreactivity
QVQLVESGGGLVQAGGSLSLSCAASGSTFFIYTMGWYRQAPGNEREFVAAISWTGGRTYYADSEKGRFTISRDNAKNTVFLQMNSLTPEDTAVYYCAARYKYSSYDYWGQGTQVTVSS	high polyreactivity
QVQLVESGGGLVQAGGSLSLSCAASGSTFIHNAMGWYRQAPGKERELVAAITSGGSTYYADSVKGRFTISRDNAKNTVYLQMNSLKPEDTAVYYCNRVSWRYSTMEYWGHGTQVTVSS	high polyreactivity
QVQLVESGGGLVQAGGSLSLSCAASGSTFKHYAMGWYRQAPGKERELVAAISSRGGSTHYADSVKGRFTISRDNAMNTVYLQMNSLKPEDTAVYYCARDTDPQSSRSSDYDYWGQGTHVTVSS	low polyreactivity
QVQLVESGGGLVQAGGSLSLSCAASGSTFNRYAMRSYRQAPGQESELVDTINLNTGSTYADSVKGRFTISRDNAKNTVYLEMNSVKPEDTAVYYCAAVGQTHPTSPLSTKYDYWGQGTQVTVSS	low polyreactivity
QVQLVESGGGLVQAGGSLSLSCAASGSTFPKYAMGWYRQAPGKERELVAAISGSGGSTYYADSVKGRFTISRDNAKNTVYLQMNSLKPEDTAVYYSAVAWNVRGVGARQRDIYGYWGQGTQVTVST	high polyreactivity
QVQLVESGGGLVQAGGSLSLSCAASGSTFRYYTMGWYRQAPGKERELVAAISWTGGGTYYADSVKGRFTISRDNAKNTVYLQMNSLKPEDTAVYYCAASYYYELFRFDYWGQGTQVTVSS	high polyreactivity
QVQLVESGGGLVQAGGSLSLSCAASGSTFSLNTKGWYRQAPRKERELVAAITSGGSTNYADSVKGRFTISRDNAKNTVYLQMNSLKPEDTAVYYCAATPGRGGGYNYWGQGSQVTVSS	low polyreactivity
QVQLVESGGGLVQAGGSLSLSCAASGSTFVGYAMGWYRQAPGKEREFVAAITRGGSTNYADSVKGRFTISRDNAKNTVYLQMNSLNPEDTAVYYCAARDRREGFNFDYWGQGTQVTVSS	low polyreactivity
QVQLVESGGGLVQAGGSLSLSCAASGSTYARYTMGWYRQAPGKERELVAAISGRGGSTYYADSVKGRFTISRDNAKNTVYLQMNSLKPEDTAVYYCAAHDTYHSYGLYSWGQGTQVTVSS	low polyreactivity
QVQLVESGGGLVQAGGSLSLSCAASGYIVKAYVMGWYRPAPGKVRELVAAITWSGGSTYYADTVKGRFTISRDNAKNTVYLQMNSLKPEDTAVYYCAAYARRYRTPYDFWGQGTQVTLSS	high polyreactivity
QVQLVESGGGLVQAGGSLSLSCAASGYTFLRYAMGWYRQAPGQERELVATISRSGGRTYYADSVKGRFTISRDNAKNTVYLLMNSLKPEDTSVYYCNAEAIVVNGGGYWGQGTQVTVSS	high polyreactivity
QVQLVESGGGLVQAGGSLSLSCAASGYTFYKYAMGSYIQAPGKERELVAAISSSGGSTYYADSVKGRFTISRDNAKNTVYLQMNSLKPEDTAVNYCAAYVYSNDYDYWGQGTQVTVSS	high polyreactivity
QVQLVESGGGLVQAGGSLSLSCAATGLTFQQYAMGWYRQAPWKERELVAAITVSGGHTYYADSVKGRFTISRDNAKNTVYLQMNTLKPEDTAVYYCAAPPGYTGRYDYYYCGQGTQVTVSS	high polyreactivity

From the nanobody polyreactivity screen of Harvey et al. (2022)
